Common to all, as to assay: fluorescence polarisation
On the technique in general: Polarisation of emitted light reports the rotation of a fluorescent probe.

Assay [1] deals with Bim_A2eT_E2gG (UniProt O43521).
Assay [2] deals with BL6-22_Y4eK.
Assay [3] addresses KL6-7_D3fA.
Assay [4] addresses Bim_A2eT (UniProt O43521).
The target in assay [5] is KL6-7_Y4eK.
Assay [6] has as its target Bim_R3bS (UniProt O43521).
Assay [7] concerns the target Bim BH3 peptide (23 residues, fluoresceinated) (UniProt O43521).

Where only a bound is given, the exact number is not on record here.

We go through eight substances from publication PMC4520770.

Sequence of Bcl-w (human), c-myc-tagged (Q92843 whole entry): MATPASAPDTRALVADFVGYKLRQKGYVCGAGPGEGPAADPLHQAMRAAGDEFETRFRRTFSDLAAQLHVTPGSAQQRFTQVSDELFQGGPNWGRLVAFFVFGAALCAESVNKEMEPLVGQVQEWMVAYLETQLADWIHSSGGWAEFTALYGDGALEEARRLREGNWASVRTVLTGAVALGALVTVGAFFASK
Sequence of Bfl-1 (human), c-myc-tagged (Q16548 whole entry): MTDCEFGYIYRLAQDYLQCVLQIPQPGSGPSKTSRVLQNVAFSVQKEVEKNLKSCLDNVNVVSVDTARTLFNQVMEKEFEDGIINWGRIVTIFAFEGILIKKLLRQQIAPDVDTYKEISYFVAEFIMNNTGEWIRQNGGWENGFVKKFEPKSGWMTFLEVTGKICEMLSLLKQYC

Consider “BHRF1 (Epstein-Barr virus Bcl-2 homolog), c-myc-tagged (from UniProt P03182 1-191) (natural protein)”, for which the Kd (in general, the constant that tells how readily two partners part at equilibrium) was more than 1000 nM in assay [1]; 30 nM in assay [2]; more than 1000 nM in assay [3]; 64 nM in assay [4]; more than 1000 nM in assay [5].
Regarding “Bcl-2 (human), c-myc-tagged (from UniProt P10415 1-239) (natural protein)”, the Kd in assay [6] came out at 7.2 nM; in assay [1], 150 nM; in assay [4], 44 nM.
For the substance “Bcl-w (human), c-myc-tagged (from UniProt Q92843 1-193) (natural protein)”, the values for the Kd in assay [6], in assay [1] and in assay [4] were 18 nM, 98 nM and 40 nM, respectively.
The like results for “Bcl-xL (human), c-myc-tagged (from UniProt Q07817-1 1-233) (natural protein)” were, in that order, 3.8 nM, 42 nM and 18 nM.
The like results for “Bfl-1 (human), c-myc-tagged (from UniProt Q16548 1-175) (natural protein)” were, in that order, 5.2 nM, 260 nM and 32 nM.
In the case of “KSBcl-2 (Kaposi's sarcoma-associated herpesvirus Bcl-2 homolog), c-myc-tagged (from UniProt P90504 1-175) (natural protein)”, the dissociation constant (Kd) in assay [6] is 1.5 nM; in assay [1] it was 1.1 nM; in assay [4], 1.8 nM.
Regarding “M11 (murine gamma herpesvirus γHV68 Bcl-2 homolog), BAP- and His6-tagged (from UniProt P89884 1-171) (natural protein)”, the Kd in assay [1] came out at 15 nM; in assay [4], 78 nM.
Take “Mcl-1 (human), c-myc-tagged (from UniProt Q07820 1-350) (natural protein)”: the dissociation constant (Kd) is less than 1 nM in assay [6]; 1.6 nM in assay [1]; less than 1 nM in assay [7]; more than 5000 nM in assay [3]; 0.62 nM in assay [4]; 7800 nM in assay [5].
